The nature of the series: protein stability index of a GFP-peptide fusion (GPS, HEK-293T) (PSI 1-6); higher = more stable.
Where [1] appears, read: treatment: DMSO, c terminus: a fixed tail appended.
Setting [2] is: treatment: MLN4924 1 uM, 8 h, c terminus: a fixed tail appended.

± gives the standard deviation.
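Also: 24-mer peptide tiles fused after GFP, lentivirally expressed, FACS-sorted into six equal bins by GFP/DsRed ratio, decoded by Illumina sequencing, PSI is the read-weighted mean bin number.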

For GAFLRTCLLSSNSRSLLTGGYNLA [TLE6], the protein stability index by setting is: under setting [1], 2.72 ± 0.32; under setting [2], 2.79 ± 1.1.

Take GEAAGSSLIGHLQTLSPDMQGAYC [DUSP5]: the protein stability index by setting is: under setting [1], 3.82 ± 0.34; under setting [2], 3.87 ± 0.26.

As to SDVVPEKERPLVIGHFNTASGVGF [MFSD9], the protein stability index reads like this: under setting [1], 3.49 ± 0.26; under setting [2], 3.52 ± 0.25.

With GGQITDEMAEQLMTLAYDNGINLF [KCNAB2], the protein stability index is, setting by setting: under setting [1], 2.79 ± 0.17; under setting [2], 2.9 ± 0.35.

Turning to IADRAAHDESPGNNVVDISVPPTT [RAB11B], the protein stability index is, setting by setting: under setting [1], 5.43 ± 0.24; under setting [2], 5.21 ± 0.13.

The sequence SIKPEASQMPPPAGGTSDDPEPSG [SCNN1D] gave a protein stability index under setting [1] of 5.43 ± 0.15 and a protein stability index under setting [2] of 5.57 ± 0.28.

On to AWKDDFALNSMLRRRFREKKKAIQ [YJU2B], for which the protein stability index under setting [1] worked out at 3.27 ± 0.36 and the protein stability index under setting [2] was determined as 3.37 ± 0.13.

Consider SKSKQPAGHRRPAGGIRESKESSK [C22orf31], for which the protein stability index reads like this: under setting [1], 5.35 ± 0.055; under setting [2], 4.91 ± 0.53.

Take IEQDAVVPSEWLSSVYKQQWFAML [GMCL1]: the protein stability index runs as follows: under setting [1], 2.26 ± 0.098; under setting [2], 2.78 ± 0.3.

For RYCDSILREMLSKKHAAYAWPFYK [BRD3], the protein stability index turned out to be 2.07 ± 0.48 under setting [1] and 2.02 ± 0.26 under setting [2].

Regarding SEDTLTIHGLPTEGYQALYHAVVE [C22orf31], the protein stability index reads like this: under setting [1], 3.19 ± 0.27; under setting [2], 3.24 ± 0.36.

The sequence KFMLREQFEANGYFFKRPYPFVLF [KMT2E] registered a protein stability index under setting [1] of 3.41 ± 0.39 and a protein stability index under setting [2] of 2.73 ± 0.97.

On to PPHPAPAPQHPAASALRTRMTGGR [DYRK1B], for which the protein stability index turned out to be 4.86 ± 0.23 under setting [1] and 4.9 ± 0.13 under setting [2].

In the case of ALHSLTQAGDYSMRVDLRAGDEAV [TNXB], the protein stability index is, setting by setting: under setting [1], 3.39 ± 0.57; under setting [2], 3.6 ± 0.49.

With SLTSGACRLDYRRPENRSFYLALY [TCF25], the protein stability index by setting is: under setting [1], 2.41 ± 0.66; under setting [2], 2.57 ± 0.88.

As to ALVETSYVKVLHHMVKISGGPHIS [MAGEA3], the protein stability index is 2.8 ± 0.52 under setting [1] and 2.82 ± 0.78 under setting [2].

For the sequence LQAQVQYQQQHEQQKKDLEILHQQ [SASS6], the protein stability index runs as follows: under setting [1], 4.73 ± 0.14; under setting [2], 4.93 ± 0.19.

For RQWPTKSQTDRGASAGKRRCFWLG [SDE2], the protein stability index was determined as 2.9 ± 0.24 under setting [1] and 3.19 ± 0.58 under setting [2].

For the sequence DSKSLKTHQTQPGIRRARDKALSG [NET1], the protein stability index amounted to 4.63 ± 0.16 under setting [1] and 4.7 ± 0.18 under setting [2].

DAGGIPRTAQSEETRVWHRRDGKW [CAMK2A] showed a protein stability index under setting [1] of 4.92 ± 0.13 and a protein stability index under setting [2] of 4.86 ± 0.1.

On to GGYAIAVVLLQGAELLLAARLLGA [TSPAN10], for which the protein stability index was determined as 2.81 ± 0.53 under setting [1] and 2.96 ± 0.32 under setting [2].

As to APFLSQADDPDDGPVPGTPGLPGS [SPNS1], the protein stability index was determined as 5.55 ± 0.34 under setting [1] and 5.43 ± 0.21 under setting [2].

In the case of MRGPEPGPQPTMEGDVLDTLEALG [FAM98B], the protein stability index by setting is: under setting [1], 5.19 ± 0.34; under setting [2], 5.087 ± 0.039.

Turning to ERTSPGAIHYCASTSEESWTDSEV [SPDEF], the protein stability index came to 5.25 ± 0.058 under setting [1] and 4.97 ± 0.18 under setting [2].

SSNLLDLKNPFFRYTGTTPSPPPG [CARM1]: the protein stability index amounted to 3.29 ± 0.29 under setting [1] and 3.42 ± 0.15 under setting [2].

For the sequence SATLVGFTVGSVLGQILVSVAGWS [SLC19A2], the protein stability index by setting is: under setting [1], 3.13 ± 0.21; under setting [2], 3.23 ± 0.89.

Take CTGLKKAHRTEFYRNLTHNPPSDF [STK38L]: the protein stability index turned out to be 2.85 ± 0.09 under setting [1] and 2.87 ± 0.28 under setting [2].

Turning to CLAHLGEKVSQELKEPLHKALQML [BCL2L13], the protein stability index is, setting by setting: under setting [1], 2.26 ± 0.28; under setting [2], 2.16 ± 0.26.

With RDLTQEQTEKLLQFQDLTGIESMD [FAF2], the protein stability index stood at 5.04 ± 0.11 under setting [1] and 5.05 ± 0.16 under setting [2].

RMQVLKRQVQSLMVHQRKLEAELL [SMARCE1]: the protein stability index under setting [1] amounted to 2.17 ± 0.27 and the protein stability index under setting [2] was determined as 2.6 ± 0.45.

As for NQRIIHRDMKPDNILLDEHDTWLS [STK32A], the protein stability index runs as follows: under setting [1], 3.71 ± 0.33; under setting [2], 3.63 ± 0.27.

In the case of KDAYVQKLVKVCNGHDCWSLISLS [TENT5D], the protein stability index reads like this: under setting [1], 2.43 ± 0.41; under setting [2], 2.14 ± 0.26.

In turn, FTKANFWYQPSFHGVDLSALRGAA [CARM1] returned a protein stability index under setting [1] of 2.38 ± 0.83 and a protein stability index under setting [2] of 1.92 ± 0.3.

With FRLKTINLQSLINNEIPDCYTFSV [MCOLN1], the protein stability index by setting is: under setting [1], 2.76 ± 0.41; under setting [2], 2.51 ± 0.39.

As for EEQVILTEKDLLEDGFGEHPFYHC [SAT1], the protein stability index is 3.95 ± 0.24 under setting [1] and 4.15 ± 0.42 under setting [2].

Turning to RVEESGSKKEGKRQGPKEPPRKSG [PBXIP1], the protein stability index worked out at 5.33 ± 0.17 under setting [1] and 5.33 ± 0.48 under setting [2].

On to ACGVILYILLVGYPPFWDEDQHKL [CAMK2B], for which the protein stability index turned out to be 3.05 ± 0.85 under setting [1] and 2.93 ± 0.38 under setting [2].

As for PEFIKVRENLRRIATLTSEEREL [FAM107A], the protein stability index by setting is: (treatment: DMSO, c terminus: native) 2.66 ± 0.5; (treatment: MLN4924 1 uM, 8 h, c terminus: native) 3.35 ± 0.55.

In the case of SFVESANSEVYLPNINKISMQAVL [RHOBTB1], the protein stability index runs as follows: under setting [1], 2.43 ± 0.21; under setting [2], 2.2 ± 0.34.

The sequence IKPPPPLVLNSQQSDTLEQREEHE [RAD54B] registered a protein stability index under setting [1] of 5.23 ± 0.13 and a protein stability index under setting [2] of 5.3 ± 0.34.

Regarding MGNLVMFRKDSVLNILIQSLDWET [INTS3], the protein stability index is, setting by setting: under setting [1], 2.68 ± 0.64; under setting [2], 2.82 ± 0.45.

Take CHRRYSCAHCRAHLANHDDLISKS [YPEL3]: the protein stability index reads like this: under setting [1], 2.44 ± 0.46; under setting [2], 2.81 ± 0.4.

In the case of AEYYRLHLEGYHGTAGDSMSYHSG [TNXB], the protein stability index reads like this: under setting [1], 3.09 ± 0.83; under setting [2], 2.96 ± 0.43.

Turning to ILGSGEEGPQVGPSAAQTLRSFCA [ADAMTS4], the protein stability index is, setting by setting: under setting [1], 3.7 ± 0.5; under setting [2], 3.95 ± 0.53.

For the sequence GNLSVLDVGCISVTVPSMLSRLLS [OR3A1], the protein stability index is, setting by setting: under setting [1], 2.09 ± 0.49; under setting [2], 2.29 ± 0.18.

For the sequence TPFQSVPPTVSQTPVIAATPVPTI [BRD3], the protein stability index is, setting by setting: under setting [1], 4.06 ± 0.24; under setting [2], 3.94 ± 0.13.

Take DPIIDSWEVVTSMGTQRCDAGVCV [KLHL12]: the protein stability index by setting is: under setting [1], 3 ± 0.21; under setting [2], 2.95 ± 0.39.

As for TKRSSRNPVFQDSWDTESSGSDSG [FAM104A], the protein stability index is 5.3 ± 0.28 under setting [1] and 5.22 ± 0.055 under setting [2].

Regarding LQQLRARLQGLEADCVRGPDGVCL [PBXIP1], the protein stability index is, setting by setting: under setting [1], 2.7 ± 0.29; under setting [2], 3.01 ± 0.35.

With LLDLQPDFSSGGAAAAAAPAPPPP [SNAP91], the protein stability index came out at 4.68 ± 0.23 under setting [1] and 4.77 ± 0.22 under setting [2].

For the sequence VWMLMLLLAVPNIILTNQSVREVT [P2RY14], the protein stability index reads like this: under setting [1], 3.27 ± 0.3; under setting [2], 2.96 ± 0.46.

On to AGGYVDVVKVLLESGASIEDHNEN [ANKRD17], for which the protein stability index runs as follows: under setting [1], 3.08 ± 0.24; under setting [2], 3.12 ± 0.36.

On to MSQTVQRMLVAASWACAFTNALTH [OR3A1], for which the protein stability index by setting is: under setting [1], 3.3 ± 0.22; under setting [2], 3.31 ± 0.23.

With LADYLVPILAPRIFGSNKWTTEQQ [ARL6IP1], the protein stability index runs as follows: under setting [1], 2.34 ± 0.49; under setting [2], 2.16 ± 0.16.

As to HSSPVDLKIPQVRGMDLSWESRTG [LCOR], the protein stability index came to 3.43 ± 0.33 under setting [1] and 3.65 ± 0.31 under setting [2].

Regarding YGPRWQEVIPYTPAMQRYVKRLHE [HMOX1], the protein stability index came out at 3.09 ± 0.4 under setting [1] and 3.4 ± 0.24 under setting [2].

For DVTCNEFFFDRNPGAFGTILTFLR [KCNG1], the protein stability index stood at 2.59 ± 0.33 under setting [1] and 2.65 ± 0.12 under setting [2].

For SVPLDPMERPMSQADLELDYNPPR [CBY2], the protein stability index was found to be 4.75 ± 0.6 under setting [1] and 4.98 ± 0.23 under setting [2].

Take KKREKQREQMEQMKQRIAEENIMK [FAM50A]: the protein stability index amounted to 4.8 ± 0.18 under setting [1] and 4.78 ± 0.41 under setting [2].

On to RAPACSPEAAAAQLRATAGSLILP [FCHO1], for which the protein stability index came out at 3.12 ± 0.38 under setting [1] and 3.15 ± 0.34 under setting [2].

Take WFSCQGPFDMDSCLSRHSINPYSN [DFFB]: the protein stability index amounted to 2.35 ± 0.24 under setting [1] and 2.2 ± 0.27 under setting [2].

EHSWIKAIRRRNVRGEDSGRKPER [DAPK3]: the protein stability index by setting is: under setting [1], 3.62 ± 1.7; under setting [2], 4.07 ± 0.23.

Regarding PSLEELGFDTDGLSSAVWPGGETE [CRY1], the protein stability index reads like this: under setting [1], 5.33 ± 0.28; under setting [2], 5.29 ± 0.16.

In the case of KQKNAYIGTQGPLENTYRDFWLMV [PTPN9], the protein stability index under setting [1] stood at 2.44 ± 0.51 and the protein stability index under setting [2] is 2.4 ± 0.36.

As for DQNRDGFIDKEDLKDTYASLGKTN [MYL5], the protein stability index reads like this: under setting [1], 5.12 ± 0.092; under setting [2], 5.2 ± 0.14.

On to TLALEALVQLRGRLTSQDWERVHL [ALG2], for which the protein stability index is, setting by setting: under setting [1], 2.24 ± 0.27; under setting [2], 2.32 ± 0.24.

As for LRIPEGPIDQGPAIGRVRVLEEQL [FUT8], the protein stability index runs as follows: under setting [1], 3.69 ± 0.37; under setting [2], 3.85 ± 0.19.

FEEFLVMMVRQMKEDAKGKSEEEL [TNNC2]: the protein stability index came to 3.48 ± 0.37 under setting [1] and 3.28 ± 0.35 under setting [2].

Turning to ARPSSASIRDANLYVSGLPKTMSQ [ELAVL3], the protein stability index reads like this: under setting [1], 4.08 ± 0.61; under setting [2], 3.81 ± 0.098.

Consider RCIGVTKPIFHSTKITSKHVKMML [PTGFR], for which the protein stability index by setting is: under setting [1], 2.13 ± 0.27; under setting [2], 2.15 ± 0.28.

Take VCTDTDRWSLISLSNKNGKNVELK [TENT5C]: the protein stability index runs as follows: under setting [1], 3.46 ± 0.27; under setting [2], 3.57 ± 0.17.

With IVTKFYQLSATGQKLYVRLFQRKL [FAN1], the protein stability index came to 3.6 ± 0.98 under setting [1] and 2.57 ± 0.51 under setting [2].

The values above are taken from the supplement of paper PMC10567573.
